# Positions count from the first letter of the chain named.
# B1: 374_D07 (antibody, V domains shown)
# VH: EVQLLESGGGLVQPGGSLRLSCAASGFTFDSYSMNWVRQAPGKGLEWVSGINYNSGYKSYADSVKGRFTISRDNSKNTLYLQMNSLRAEDTAVYYCARGANWHDTALDYWGQGTLVTVSS
# VL: DIQMTQSPSSLSASVGDRVTITCRASQSIVSYLNWYQQKPGKAPKLVIYAATSLASGVPSRFSGSGSGTDFTLTISSLQPEDFATYYCQQSYNSPLTFGGGTKVEIK
# notes: Group III
# B2: 375_D01 (antibody, V domains shown)
# VH: B1 VH with D30S, S55G, K58T, S59G
# VL: B1 VL with V30L, S31T, L54R, N93E, S94T
# notes: Group III
# B3: 374_D10 (antibody, V domains shown)
# VH: B1 VH with D30S, S33G, N35H, S49A, G50S, S55G, K58T, A106H
# VL: B1 VL with V30L, S31T, L33V, V47L, L54R, N93D, S94N
# notes: Group III
# B4: 374_F08 (antibody, V domains shown)
# VH: B1 VH with S55G
# VL: B1 VL with V30L, S31T, L33V, A51V, L54R, N93D, S94T
# notes: Group III
# B5: 374_G09 (antibody, V domains shown)
# VH: B1 VH with D30S, S49A, S55G, S59G, A106H
# VL: B1 VL with S31R, N93E, S94L
# notes: Group III
# B6: 374_H11 (antibody, V domains shown)
# VH: B1 VH with D30S, S55G, K58T
# VL: B1 VL with V30I, L33V, A55H, N93S, S94N
# notes: Group III
# B7: 375_B12 (antibody, V domains shown)
# VH: B1 VH with S49A, S55G
# VL: B1 VL with S31T, V47L, L54R, N93D, S94T
# notes: Group III
# B8: 375_C04 (antibody, V domains shown)
# VH: B1 VH with D30S, S31D, S49A, S55G, K58T
# VL: B1 VL with V30L, S31T, L54R, N93E
# notes: Group III
# B9: 375_D10 (antibody, V domains shown)
# VH: B1 VH with D30S, S49A, S55G, K58T
# VL: B1 VL with V30L, S31T, L33V, V47L, L54R, Y92D, N93D
# notes: Group III
# B10: 375_H07 (antibody, V domains shown)
# VH: B1 VH with D30S, S49A, S55G, K58T
# VL: B1 VL with V30L, V47L, N93S
# notes: Group III
# B11: 375_E02 (antibody, V domains shown)
# VH: B1 VH with D30S, S31D, S49A, S55G, K58T
# VL: B1 VL with V30L, S31T, V47L, L54R, N93S
# notes: Group III
# B12: 374_G11 (antibody, V domains shown)
# VH: B1 VH with D30S, S31D, S55G, K58T
# VL: B1 VL with V30I, L33V, N93D
# notes: Group III
# B13: 375_E05 (antibody, V domains shown)
# VH: B1 VH with D30S, S49A, S55G, K58T
# VL: B1 VL with V30L, N93S
# notes: Group III
# B14: 375_A07 (antibody, V domains shown)
# VH: B1 VH with G50S, K58T, S59G, A106H
# VL: B1 VL with V30L, S31T, V47L, L54R, N93D, S94T
# notes: Group III
# B15: 376_B03 (antibody, V domains shown)
# VH: B1 VH with D30S, S49A
# VL: B1 VL with V30L, L33V, A51V, L54R, A55H, N93D
# notes: Group III
# B16: 375_G04 (antibody, V domains shown)
# VH: B1 VH with D30S, S33G, S49A, G50S, K58T, S59G, A106H
# VL: B1 VL with L33V, V47L, N93D
# notes: Group III
# B17: 374_E12 (antibody, V domains shown)
# VH: B1 VH with D30S, S55G
# VL: B1 VL with V30L, L54R, N93D, S94N
# notes: Group III
# B18: 375_F07 (antibody, V domains shown)
# VH: B1 VH with D30S, S31D, G50N, S55G, K58T, S59G
# VL: B1 VL with V30L, V47L, L54R, N93D
# notes: Group III
# B19: 375_H05 (antibody, V domains shown)
# VH: B1 VH with D30S, G50N, S55G, K58T, S59G
# VL: B1 VL with V30L, L33V, V47L, L54R, N93D, S94T
# notes: Group III
# B20: 374_G08 (antibody, V domains shown)
# VH: B1 VH with S55G, K58T
# VL: B1 VL with V30L, S31T, L33V, L54R, N93D
# notes: Group III
# B21: 375_E03 (antibody, V domains shown)
# VH: B1 VH with D30S, S31D, S49A, G50N, S55G, K58T, S59G, A106H
# VL: B1 VL with V30L, S31T, N93D, S94N
# notes: Group III
# B22: 375_A12 (antibody, V domains shown)
# VH: B1 VH with D30S
# VL: B1 VL with V30L, A51V, L54R, N93E, S94T
# notes: Group III
# B23: 374_E10 (antibody, V domains shown)
# VH: B1 VH with D30S, S55G
# VL: B1 VL with V30L, V47L, L54R, A55H, N93D
# notes: Group III
# B24: 375_F08 (antibody, V domains shown)
# VH: B1 VH with D30S, S33G, G50S, A106H
# VL: B1 VL with V30L, V47L, L54R, A55H, N93D, S94N
# notes: Group III
# B25: 375_F02 (antibody, V domains shown)
# VH: B1 VH with D30S, S49A, G50S, K58T, A106H
# VL: B1 VL with V30L, V47L, L54R, N93D
# notes: Group III
# B26: 375_E06 (antibody, V domains shown)
# VH: B1 VH with D30S, S55G
# VL: B1 VL with V30L, L54R, N93D
# notes: Group III
# B27: 375_A01 (antibody, V domains shown)
# VH: B1 VH with S49A, S55G, K58T
# VL: B1 VL with V30L, L54R, S94T
# notes: Group III
# B28: 375_A08 (antibody, V domains shown)
# VH: B1 VH with D30S, S49A, S55G, K58T, S59G
# VL: B1 VL with S31T, V47L, L54R, N93E
# notes: Group III
# B29: 374_G10 (antibody, V domains shown)
# VH: B1 VH with D30S, G50S, K58T, A106H
# VL: B1 VL with A51V, L54R, N93D
# notes: Group III
# B30: 376_A03 (antibody, V domains shown)
# VH: B1 VH with D30S, S33G, S49A, S55G, K58T, S59G
# VL: B1 VL with V30L, S31T, V47L, L54R, N93S, S94T
# notes: Group III
# B31: 374_G03 (antibody, V domains shown)
# VH: B1 VH with D30S, S31D, S55G, K58T
# VL: B1 VL with V30S, L54R, Y92D, N93D, S94T
# notes: Group III
# B32: 374_H01 (antibody, V domains shown)
# VH: B1 VH with S49A, S55G, K58T, A106H
# VL: B1 VL with V30L, N93E, S94N
# notes: Group III
# B33: 376_B10 (antibody, V domains shown)
# VH: B1 VH with D30S, S31D, S49A, S55G, S59G
# VL: B1 VL with V30L, N93S, S94T
# notes: Group III
# B34: 375_G05 (antibody, V domains shown)
# VH: B1 VH with D30S, S49A, S55G, K58T
# VL: B1 VL with V47L, A51V, L54R, N93D
# notes: Group III
# B35: 374_F07 (antibody, V domains shown)
# VH: B1 VH with S49A, G50S, S55G, K58T, S59G, A106H
# VL: B1 VL with V30L, A51V, N93E
# notes: Group III
# B36: 374_F06 (antibody, V domains shown)
# VH: B1 VH with D30S, S55G, K58T
# VL: B1 VL with V30I, L33V, A55H, N93S, S94T
# notes: Group III
# Molecular target: T1, human ACVR2A (human, UniProt P27037 20-135, limits assumed)
# T1 construct: coated antigen of the initial ELISA; also called activin receptor, type II A
# Assay: ELISA
# In short: (§1)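 Binding signal was read by ELISA after ACVR2A-specific monoclonal antibodies were tested against human ACVR2A and mouse ACVR2A, with human Fc as the negative control.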
# Also: test concentration or dose not given here.
# T1 sequence (P27037 20-135 limits assumed): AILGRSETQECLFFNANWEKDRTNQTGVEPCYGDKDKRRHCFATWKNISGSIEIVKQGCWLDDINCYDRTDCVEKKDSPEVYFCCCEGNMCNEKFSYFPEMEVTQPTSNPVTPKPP
row,optical density,Binder
1,3.71 OD,B1
2,3.3 OD,B2
3,3.56 OD,B3
4,3.67 OD,B4
5,3.66 OD,B5
6,3.27 OD,B6
7,3.65 OD,B7
8,3.68 OD,B8
9,3.26 OD,B9
10,3.3 OD,B10
11,3.58 OD,B11
12,3.65 OD,B12
13,3.67 OD,B13
14,3.58 OD,B14
15,3.68 OD,B15
16,2.91 OD,B16
17,3.61 OD,B17
18,3.67 OD,B18

row,optical density,Binder
1,3.35 OD,B19
2,3.71 OD,B20
3,3.57 OD,B21
4,3.66 OD,B22
5,3.74 OD,B23
6,3.5 OD,B24
7,3.6 OD,B25
8,3.85 OD,B26
9,3.28 OD,B27
10,3.68 OD,B28
11,3.68 OD,B29
12,3.61 OD,B30
13,3.79 OD,B31
14,3.08 OD,B32
15,3.6 OD,B33
16,3.71 OD,B34
17,3.47 OD,B35
18,3.72 OD,B36

# Molecular target: T2, mouse ACVR2A (mouse, UniProt P27038 20-135, limits assumed)
# T2 construct: coated antigen of the initial ELISA
# Assay: ELISA
# In short: as §1
# T2 sequence (P27038 20-135 limits assumed): as the sequence (P27037 20-135 limits assumed) above, with K20R, V73I counted along it
row,optical density,Binder
1,3.68 OD,B1
2,3.61 OD,B2
3,3.64 OD,B3
4,3.68 OD,B4
5,3.6 OD,B5
6,3.29 OD,B6
7,3.34 OD,B7
8,3.67 OD,B8
9,3.45 OD,B9
10,3.29 OD,B10
11,3.69 OD,B11
12,3.6 OD,B12
13,3.71 OD,B13
14,3.64 OD,B14
15,3.67 OD,B15
16,3.29 OD,B16
17,3.28 OD,B17
18,3.71 OD,B18

row,optical density,Binder
1,3.33 OD,B19
2,3.7 OD,B20
3,3.64 OD,B21
4,3.35 OD,B22
5,3.77 OD,B23
6,3.58 OD,B24
7,3.65 OD,B25
8,3.67 OD,B26
9,3.68 OD,B27
10,3.69 OD,B28
11,3.74 OD,B29
12,3.65 OD,B30
13,3.64 OD,B31
14,3.26 OD,B32
15,3.67 OD,B33
16,3.75 OD,B34
17,3.54 OD,B35
18,3.7 OD,B36

# Molecular target: T3, biotinylated goat anti-human kappa light chain
# T3 construct: positive control of the ELISA
# Assay: ELISA, positive control
# In short: as §1
row,optical density,Binder
1,3.26 OD,B1
2,3.1 OD,B2
3,3.27 OD,B3
4,3.18 OD,B4
5,3.26 OD,B5
6,3.15 OD,B6
7,3.28 OD,B7
8,3.21 OD,B8
9,3.21 OD,B9
10,3.27 OD,B10
11,3.2 OD,B11
12,3.25 OD,B12
13,3.28 OD,B13
14,3.11 OD,B14
15,3.52 OD,B15
16,3.19 OD,B16
17,3.29 OD,B17
18,3.22 OD,B18

row,optical density,Binder
1,3.17 OD,B19
2,3.21 OD,B20
3,3.18 OD,B21
4,3.14 OD,B22
5,3.38 OD,B23
6,3.31 OD,B24
7,3.2 OD,B25
8,3.33 OD,B26
9,2.91 OD,B27
10,3.14 OD,B28
11,3.23 OD,B29
12,3.23 OD,B30
13,3.22 OD,B31
14,3.07 OD,B32
15,3.46 OD,B33
16,3.26 OD,B34
17,3.21 OD,B35
18,3.18 OD,B36

# Source: patent US20210380703A1 (RIGEL PHARMACEUTICALS, published 2021)
